Measurements from publication PMC3239214 (Nucleic Acids Research, 2011).

Molecular target: the molecule itself
Assay: SEC

B1: GyrA_ΔCTD (domain or fragment, Bacillus subtilis, UniProt P05653 1-489, looked up)
chain: MSEQNTPQVREINISQEMRTSFLDYAMSVIVSRALPDVRDGLKPVHRRILYAMNDLGMTSDKPYKKSARIVGEVIGKYHPHGDSAVYESMVRMAQDFNYRYMLVDGHGNFGSVDGDSAAAMRYTEARMSKISMEILRDITKDTIDYQDNYDGSEREPVVMPSRFPNLLVNGAAGIAVGMATNIPPHQLGEIIDGVLAVSENPDITIPELMEVIPGPDFPTAGQILGRSGIRKAYESGRGSITIRAKAEIEQTSSGKERIIVTELPYQVNKAKLIEKIADLVRDKKIEGITDLRDESDRTGMRIVIEIRRDANANVILNNLYKQTALQTSFGINLLALVDGQPKVLTLKQCLEHYLDHQKVVIRRRTAYELRKAEARAHILEGLRVALDHLDAVISLIRNSQTAEIARTGLIEQFSLTEKQAQAILDMRLQRLTGLEREKIEEEYQSLVKLIAELKDILANEYKVLEIIREELTEIKERFNDERRTEIVT
- stoichiometry N: 2
